The values that follow come from publication PMC7730289.

pKd: −log10 of the molar value.

Assay in all cases: flow cytometry
A general note: A flow cytometer gives signals particle by particle.

For series [1], the system named is CD63-negative HEK293T cells. The conditions noted are these: PBS pH 7.4, 2.0 mM MgCl2, 0.02% Tween 20, 100 ug/mL salmon sperm DNA, ELISA 0.5 h, cells at RT 1 h (Methods) or 37 C 30 min (Results). (In general: ELISA stands for enzyme-linked immunosorbent assay.)
The target in series [2] is CD63 overexpressed on HEK293T cells (UniProt P08962). The conditions noted are these: HEK293T/CD63 cells; PBS pH 7.4, 2.0 mM MgCl2, 0.02% Tween 20, 100 ug/mL salmon sperm DNA; ELISA 0.5 h; cells at RT 1 h (Methods) or 37 C 30 min (Results).
CD63 overexpressed on HEK293T cells, sequence (P08962 whole entry): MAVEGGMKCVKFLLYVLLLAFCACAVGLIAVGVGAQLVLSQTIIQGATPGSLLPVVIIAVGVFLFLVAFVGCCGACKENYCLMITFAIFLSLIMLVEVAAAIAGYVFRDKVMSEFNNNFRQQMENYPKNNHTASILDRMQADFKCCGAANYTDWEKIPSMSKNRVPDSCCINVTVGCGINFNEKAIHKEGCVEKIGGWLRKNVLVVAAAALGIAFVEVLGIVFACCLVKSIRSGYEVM
The next series addresses CD63 on MDA-MB-231 cells (UniProt P08962). As to conditions: MDA-MB-231 cells; PBS pH 7.4, 2.0 mM MgCl2, 0.02% Tween 20, 100 ug/mL salmon sperm DNA; ELISA 0.5 h; cells at RT 1 h (Methods) or 37 C 30 min (Results).

CD63 on MDA-MB-231 cells, sequence (P08962 2-238): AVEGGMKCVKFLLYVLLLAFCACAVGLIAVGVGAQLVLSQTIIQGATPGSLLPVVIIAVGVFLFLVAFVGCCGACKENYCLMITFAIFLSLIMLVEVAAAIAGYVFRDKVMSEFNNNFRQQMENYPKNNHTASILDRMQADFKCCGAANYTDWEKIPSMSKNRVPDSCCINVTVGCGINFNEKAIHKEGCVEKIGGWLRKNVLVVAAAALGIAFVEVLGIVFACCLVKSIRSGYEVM

Usually pKd stands for −log10 of the Kd, conventionally taken in molar units. A low value points to a high Kd. As for “TAACACGACAGACGTTCGGAGGTCGAACCCTGACAGCGTGGGC [CD63-1 FAM]”, the negative logarithm of the Kd (pKd) in series [1] is less than 6.00; in series [2], 6.95; with CD63 on MDA-MB-231 cells it was 7.01.
